Legend:
[1] = target: Rad51 (wild type);Rad52 (wild type);RPA (wild type) (Saccharomyces cerevisiae;Saccharomyces …, UniProt P25454;P06778;P22336;P26754;P26755 1-400;1-471;1-621;1-273;1-122, ||); experiment: bead pull-down
[2] = target: RPA (wild type);Rad52 (wild type) (Saccharomyces cerevisiae;Saccharomyces …, UniProt P22336;P26754;P26755;P06778 1-621;1-273;1-122;1-471, |); experiment: bead pull-down
Sequence of RPA (wild type);Rad52 (wild type) (P22336 whole entry, chain 1 of 4): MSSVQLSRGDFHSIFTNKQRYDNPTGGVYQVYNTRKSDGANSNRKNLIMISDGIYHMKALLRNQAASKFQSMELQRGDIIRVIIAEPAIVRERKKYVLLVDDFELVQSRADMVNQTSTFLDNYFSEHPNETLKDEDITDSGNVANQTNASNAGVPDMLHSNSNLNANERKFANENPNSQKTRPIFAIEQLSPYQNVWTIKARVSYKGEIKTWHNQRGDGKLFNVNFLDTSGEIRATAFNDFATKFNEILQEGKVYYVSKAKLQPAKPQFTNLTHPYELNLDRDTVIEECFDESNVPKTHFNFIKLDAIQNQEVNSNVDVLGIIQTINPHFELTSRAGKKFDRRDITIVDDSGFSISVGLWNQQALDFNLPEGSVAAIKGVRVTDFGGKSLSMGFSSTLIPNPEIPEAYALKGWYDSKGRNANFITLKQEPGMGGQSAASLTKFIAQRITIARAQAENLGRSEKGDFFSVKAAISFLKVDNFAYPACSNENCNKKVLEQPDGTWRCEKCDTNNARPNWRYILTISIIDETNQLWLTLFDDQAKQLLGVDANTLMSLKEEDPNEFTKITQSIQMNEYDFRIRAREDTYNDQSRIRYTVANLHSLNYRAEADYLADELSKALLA
Sequence of RPA (wild type);Rad52 (wild type) (P26754 whole entry, chain 2 of 4): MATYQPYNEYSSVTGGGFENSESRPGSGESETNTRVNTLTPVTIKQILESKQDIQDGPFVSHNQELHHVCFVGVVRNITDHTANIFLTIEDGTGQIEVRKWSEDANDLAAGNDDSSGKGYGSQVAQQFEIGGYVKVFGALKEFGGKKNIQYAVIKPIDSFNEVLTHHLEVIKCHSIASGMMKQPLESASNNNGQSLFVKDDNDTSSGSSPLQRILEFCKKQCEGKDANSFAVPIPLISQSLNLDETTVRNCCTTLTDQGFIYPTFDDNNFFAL
Sequence of RPA (wild type);Rad52 (wild type) (P26755 whole entry, chain 3 of 4): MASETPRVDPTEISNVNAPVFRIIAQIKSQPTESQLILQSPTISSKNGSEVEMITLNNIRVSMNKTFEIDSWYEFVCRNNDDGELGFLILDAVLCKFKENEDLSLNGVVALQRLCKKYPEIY
Sequence of RPA (wild type);Rad52 (wild type) (P06778 whole entry, chain 4 of 4): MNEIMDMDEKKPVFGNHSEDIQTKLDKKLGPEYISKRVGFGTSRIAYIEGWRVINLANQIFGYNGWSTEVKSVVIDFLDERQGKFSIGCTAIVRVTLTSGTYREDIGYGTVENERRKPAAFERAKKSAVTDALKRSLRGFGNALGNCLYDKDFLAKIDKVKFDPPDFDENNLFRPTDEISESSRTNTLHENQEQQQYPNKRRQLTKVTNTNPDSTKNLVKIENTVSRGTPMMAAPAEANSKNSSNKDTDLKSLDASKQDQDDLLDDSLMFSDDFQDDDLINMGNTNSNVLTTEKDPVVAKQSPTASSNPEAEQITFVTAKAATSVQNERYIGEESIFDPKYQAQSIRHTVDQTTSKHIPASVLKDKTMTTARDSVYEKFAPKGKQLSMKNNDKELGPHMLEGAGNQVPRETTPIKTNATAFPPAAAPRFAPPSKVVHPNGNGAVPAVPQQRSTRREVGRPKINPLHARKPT

B1: 74-nt biotinylated ssDNA oligo (ssDNA)
DNA: TTTTTTGTAAAACGACGGCCAGTGCCAAGCTTGCATGCCTGCAGGTCGACTCTAGAGGATCCCCGGGTACCGAG
modifications: 5' biotin
B1: binds [1]; binds [2].
